Three molecules from patent EP3733708A1 can be followed below.

In assay [1] the target is Recombinant Human PD-1 (R&D Systems Inc) (human) (UniProt Q15116). The assay is described as follows: second ELISA blocking assay, PD-1 / PD-L1Fc; reference: unlinked mix of 9E3 and 3H4. In general terms: ELISA stands for enzyme-linked immunosorbent assay.
Assay [2] has the same target. The assay is described as follows: ELISA blocking, PD-1 coated, biotinylated PD-L1Fc, streptavidin-HRP; antibody at 1 ng/ml.
Assay [3] has the same target. The assay is described as follows: ELISA blocking, PD-1 coated, biotinylated PD-L1Fc, streptavidin-HRP; antibody at 10 ng/ml.
Assay [4] shares this target. As to the kind of experiment: ELISA blocking, PD-1 coated, biotinylated PD-L1Fc, streptavidin-HRP; antibody at 0.1 ng/ml.
Assay [5] has the same target. The assay is described as follows: ELISA blocking, PD-1 coated, biotinylated PD-L1Fc, streptavidin-HRP; antibody at 100 ng/ml.
Assay [6] shares this target. The assay is described as follows: ELISA blocking, PD-1 coated, biotinylated PD-L1Fc, streptavidin-HRP; antibody at 0.01 ng/ml.
Assay [7] shares this target. The assay is described as follows: ELISA blocking, PD-1 coated, biotinylated PD-L1Fc, streptavidin-HRP; antibody at 1000 ng/ml.
For assay [8] the target is unchanged. As to the kind of experiment: ELISA blocking, PD-1 coated, biotinylated PD-L1Fc, streptavidin-HRP; antibody at 0.001 ng/ml.
For assay [9] the target is unchanged. As to the kind of experiment: ELISA blocking, PD-1 coated, biotinylated PD-L1Fc, streptavidin-HRP; antibody at 10000 ng/ml.

UniProt Q15116, sequence (Q15116 25-167 limits assumed): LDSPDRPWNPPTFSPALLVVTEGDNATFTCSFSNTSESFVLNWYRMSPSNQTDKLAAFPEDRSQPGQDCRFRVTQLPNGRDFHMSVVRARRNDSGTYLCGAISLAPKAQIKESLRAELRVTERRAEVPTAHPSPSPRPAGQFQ

B1: Bispecific clone GS388 (9E3-17aa-3H4) (bispecific antibody)
chain: QLQLVEFGGGLVQAGGSLRLSCAASGSIFRGNAMVWYRQAPGKERELVATITNGGSTNYADSVKGRFTISRDNAKNTVYLQMNSLKPEDTAIYYCNDVIRGESGIYYPLNYWGQGTQVTVSSGGSEGGGSGGGGESGGGQVQFVESGGGLVQPGGSLRLSCAVSGSTFVVKHFAWFRQPPGNRRELVAATRGEGTTYYRDSVMGRFTISSDNPENTVYLQMTSLQPEDTAVYFCNVRSPGGEEFWGKGTLVTVSS
Consider B1, for which, in assay [1], the fold increase in blocking against a simple mix of 9E3 and 3H4 was > 10 fold. Also, the blocking ELISA signal (PD-L1Fc bound to PD-1) in [2] turned out to be 1.09; in assay [3] it was 0.947; in assay [4], 1.1; in assay [5], 0.197; in [6] it was 1.12; in [7], 0.103. Moreover, the blocking ELISA signal (PD-L1Fc bound to PD-1) in assay [8] amounted to 1.11; in [9], 0.102.

B2: 3H4 single domain antibody (VHH)
VHH: QVQFVESGGGLVQPGGSLRLSCAVSGSTFVVKHFAWFRQPPGNRRELVAATRGEGTTYYRDSVMGRFTISSDNPENTVYLQMTSLQPEDTAVYFCNVRSPGGEEFWGKGTLVTVSS
Turning to B2, the blocking ELISA signal (PD-L1Fc bound to PD-1) in assay [2] came to 1.06; in [3], 1.1; in assay [4] it was 1.07; in [5] it was 0.964; in assay [6], 1.08; in assay [7] it was 0.927. Moreover, the blocking ELISA signal (PD-L1Fc bound to PD-1) in [8] amounted to 1.11; in assay [9] it was 0.833.

B3: 9E3 single domain antibody (VHH)
VHH: QLQLVEFGGGLVQAGGSLRLSCAASGSIFRGNAMVWYRQAPGKERELVATITNGGSTNYADSVKGRFTISRDNAKNTVYLQMNSLKPEDTAIYYCNDVIRGESGIYYPLNYWGQGTQVTVSS
In the case of B3, the blocking ELISA signal (PD-L1Fc bound to PD-1) amounted to 1.06 in [2]; 1.09 in [3]; 1.08 in assay [4]; 0.965 in assay [5]; 1.11 in assay [6]; 0.457 in [7]. For the same molecule, the figures for the blocking ELISA signal (PD-L1Fc bound to PD-1) in [8] and in assay [9] were 1.17 and 0.104, respectively.
